Biological target: human EGFR, C-terminal eGFP-tagged, on CHO-K1 cells (human, UniProt P00533 25-1210)
Assay: cell-based or functional assay

EC50 CHO-K1 EGFR Low (nM); T cell activation bioassay, luciferase | EC50 CHO-K1 EGFR Med (nM); T cell activation bioassay, luciferase | Binder
0.369 nM | 0.0257 nM | GOMP001_bsAb_039 (bispecific antibody, human IgG1, kappa, L234A L235A) heavy 1: QVQLVQSGAEVKKPGASVKVSCKASGYTFTSHWMHWVRKAPGQGLEWIGEFNPSNGRTNYNEEFKSKATMTVDTSTNTAYMELSSLRSEDTAVYYCASRDYDYDGRYFDYWGQGTLVTVSSASTKGPSVFPLAPSSKSTSGGTAALGCLVADYFPEPVTVSWNSGALTSGVHTFPAVLQSSGLYSLSSVVTVPSSSLGTQTYICNVNHKPSNTKVDEKVEPKSCDKTHTCPPCPAPEAAGGPSVFLFPPKPKDTLMISRTPEVTCVVVDVSHEDPEVKFNWYVDGVEVHNAKTKPREEQYNSTYRVVSVLTVLHQDWLNGKEYKCKVSNKALPAPIEKTISKAKGQPREPQVYTLPPSREEMTDNQVSLTCLVKGFYPSDIAVEWESNGQPENNYKTTPPVLMSDGSFFLASKLTVDKSRWQQGNVFSCSVMHEALHNHYTQKSLSLSPG light 1: RIQMTQSPSSLSASVGDRVTITCSASSSVTYMYWYQDKPGKAPKLLIYDTSNLASGVPSRFSGSGSGTDYTFTISSLQPEDIATYYCQQWSSHIFTFGQGTKVEIKRTVAAPSVFIFPPSDKQLKSGTARVVCLLNNFYPREAKVQWKVDNALQSGNSQESVTEQDSKDSTYSLSSTLTLSKADYEKHKVYACEVTHQGLSSPVTKSFNRGEC heavy 2: EVQLVESGGGLVKTGGSHRLSCVASGFSFKKAWMNWVRYAPGKGLEWVGRIKRNSDGGTTDYAARVKGRFILSRDDSKNTLYLQMNSLKTEDTAVYYCTTLDSSSWYVGYYYMDVWGRGTTVTVSSASTKGPSVFPLAPSSKSTSGGTAALGCLVKDYFPEPVTVSWNSGALTSGVHTFPAVLQSSGLYSLSSVVTVPSSSLGTQTYICNVNHKPSNTKVDKKVEPKSCDKTHTCPPCPAPEAAGGPSVFLFPPKPKDTLMISRTPEVTCVVVDVSHEDPEVKFNWYVDGVEVHNAKTKPREEQYNSTYRVVSVLTVLHQDWLNGKEYKCKVSNKALPAPIEKTISKAKGQPRRPRVYTLPPSREEMTKNQVSLVCLVKGFYPSDIAVEWESNGQPENNYKTTPPVLDSDGSFFLYSVLTVDKSRWQQGNVFSCSVMHEALHNHYTQKSLSLSPG light 2: DIQMTQSPSSVSASVGDRVTITCRASQDINNWLAWYQRKPGDAPKILIYTASNLQSGVPSRFSGSGSGTDFTLTISSLQPEDFATYFCQQAHSLPITFGQGTRLEIKRTVAAPSVFIFPPSDEQLKSGTASVVCLLNNFYPREAKVQWKVDNALQSGNSQESVTEQDSKDSTYSLSSTLTLSKADYEKHKVYACEVTHQGLSSPVTKSFNRGEC
0.0439 nM | 0.00223 nM | GOMP001_bsAb_042 (bispecific antibody, human IgG1, kappa, L234A L235A) heavy 1: EVQLVESGGGLVKTGGSLRLSCVASGFSFKKAWMNWVRYAPGKGLEWVGRIKRNTDGGPADYAARVKGRFTLSRDDSKKTLYLQMNSLKTEDTAVYYCTTLDSSSWYVGYYYMDVWGRGTTVTVSSASTKGPSVFPLAPSSKSTSGGTAALGCLVKDYFPEPVTVSWNSGALTSGVHTFPAVLQSSGLYSLSSVVTVPSSSLGTQTYICNVNHKPSNTKVDKKVEPKSCDKTHTCPPCPAPEAAGGPSVFLFPPKPKDTLMISRTPEVTCVVVDVSHEDPEVKFNWYVDGVEVHNAKTKPREEQYNSTYRVVSVLTVLHQDWLNGKEYKCKVSNKALPAPIEKTISKAKGQPRRPRVYTLPPSREEMTKNQVSLVCLVKGFYPSDIAVEWESNGQPENNYKTTPPVLDSDGSFFLYSVLTVDKSRWQQGNVFSCSVMHEALHNHYTQKSLSLSPG light 1: DIQMTQSPSSVSASVGDRVIITCRASQDINNWLAWYLRRPGDAPKLLIYAASSLQSGVPSRFSGSGSGTDFTLTIGSLQPEDFATYYCQQAHSLPITFGQGTRLEIQRTVAAPSVFIFPPSDEQLKSGTASVVCLLNNFYPREAKVQWKVDNALQSGNSQESVTEQDSKDSTYSLSSTLTLSKADYEKHKVYACEVTHQGLSSPVTKSFNRGEC heavy 2: QVQLVQSGAEVKKPGASVKVSCKASGYTFTSHWMHWVRYAPGQGLEWIGEFNPSNGRTNYNEKFKSKATMTVDTSTNTAYMELSSLRSEDTAVYYCASRDYDYDGRYFDYWGRGTLVTVSSASTKGPSVFPLAPSSKSTSGGTAALGCLVKDYFPEPVTVSWNSGALTSGVHTFPAVLQSSGLYSLSSVVTVPSSSLGTQTYICNVNHKPSNTKVDKKVEPKSCDKTHTCPPCPAPEAAGGPSVFLFPPKPKDTLMISRTPEVTCVVVDVSHEDPEVKFNWYVDGVEVHNAKTKPREEQYNSTYRVVSVLTVLHQDWLNGKEYKCKVSNKALPAPIEKTISKAKGQPRRPRVYTLPPSREEMTKNQVSLVCLVKGFYPSDIAVEWESNGQPENNYKTTPPVLDSDGSFFLYSVLTVDKSRWQQGNVFSCSVMHEALHNHYTQKSLSLSPG light 2: DIQMTQSPSSLSASVGDRVTITCSASSSVTYMYWYQRKPGDAPKLLIYDTSNLASGVPSRFSGSGSGTDYTFTISSLQPEDIATYYCQQWSSHIFTFGQGTKVEIKRTVAAPSVFIFPPSDEQLKSGTASVVCLLNNFYPREAKVQWKVDNALQSGNSQESVTEQDSKDSTYSLSSTLTLSKADYEKHKVYACEVTHQGLSSPVTKSFNRGEC
0.0499 nM | 0.0038 nM | GOMP001_bsAb_040 (bispecific antibody, human IgG1, kappa, L234A L235A) heavy 1: EVQLVESGGGLVKTGGSHRLSCVASGFSFKKAWMNWVRYAPGKGLEWVGRIKRNSDGGTTDYAARVKGRFILSRDDSKNTLYLQMNSLKTEDTAVYYCTTLDSSSWYVGYYYMDVWGRGTTVTVSSASTKGPSVFPLAPSSKSTSGGTAALGCLVKDYFPEPVTVSWNSGALTSGVHTFPAVLQSSGLYSLSSVVTVPSSSLGTQTYICNVNHKPSNTKVDKKVEPKSCDKTHTCPPCPAPEAAGGPSVFLFPPKPKDTLMISRTPEVTCVVVDVSHEDPEVKFNWYVDGVEVHNAKTKPREEQYNSTYRVVSVLTVLHQDWLNGKEYKCKVSNKALPAPIEKTISKAKGQPRRPRVYTLPPSREEMTKNQVSLVCLVKGFYPSDIAVEWESNGQPENNYKTTPPVLDSDGSFFLYSVLTVDKSRWQQGNVFSCSVMHEALHNHYTQKSLSLSPG light 1: DIQMTQSPSSVSASVGDRVTITCRASQDINNWLAWYQRKPGDAPKILIYTASNLQSGVPSRFSGSGSGTDFTLTISSLQPEDFATYFCQQAHSLPITFGQGTRLEIKRTVAAPSVFIFPPSDEQLKSGTASVVCLLNNFYPREAKVQWKVDNALQSGNSQESVTEQDSKDSTYSLSSTLTLSKADYEKHKVYACEVTHQGLSSPVTKSFNRGEC heavy 2: QVQLVQSGAEVKKPGASVKVSCKASGYTFTSHWMHWVRYAPGQGLEWIGEFNPSNGRTNYNEKFKSKATMTVDTSTNTAYMELSSLRSEDTAVYYCASRDYDYDGRYFDYWGRGTLVTVSSASTKGPSVFPLAPSSKSTSGGTAALGCLVKDYFPEPVTVSWNSGALTSGVHTFPAVLQSSGLYSLSSVVTVPSSSLGTQTYICNVNHKPSNTKVDKKVEPKSCDKTHTCPPCPAPEAAGGPSVFLFPPKPKDTLMISRTPEVTCVVVDVSHEDPEVKFNWYVDGVEVHNAKTKPREEQYNSTYRVVSVLTVLHQDWLNGKEYKCKVSNKALPAPIEKTISKAKGQPRRPRVYTLPPSREEMTKNQVSLVCLVKGFYPSDIAVEWESNGQPENNYKTTPPVLDSDGSFFLYSVLTVDKSRWQQGNVFSCSVMHEALHNHYTQKSLSLSPG light 2: DIQMTQSPSSLSASVGDRVTITCSASSSVTYMYWYQRKPGDAPKLLIYDTSNLASGVPSRFSGSGSGTDYTFTISSLQPEDIATYYCQQWSSHIFTFGQGTKVEIKRTVAAPSVFIFPPSDEQLKSGTASVVCLLNNFYPREAKVQWKVDNALQSGNSQESVTEQDSKDSTYSLSSTLTLSKADYEKHKVYACEVTHQGLSSPVTKSFNRGEC
0.297 nM | 0.022 nM | GOMP001_bsAb_041 (bispecific antibody, human IgG1, kappa, L234A L235A) heavy 1: QVQLVQSGAEVKKPGASVKVSCKASGYTFTSHWMHWVRKAPGQGLEWIGEFNPSNGRTNYNEEFKSKATMTVDTSTNTAYMELSSLRSEDTAVYYCASRDYDYDGRYFDYWGQGTLVTVSSASTKGPSVFPLAPSSKSTSGGTAALGCLVADYFPEPVTVSWNSGALTSGVHTFPAVLQSSGLYSLSSVVTVPSSSLGTQTYICNVNHKPSNTKVDEKVEPKSCDKTHTCPPCPAPEAAGGPSVFLFPPKPKDTLMISRTPEVTCVVVDVSHEDPEVKFNWYVDGVEVHNAKTKPREEQYNSTYRVVSVLTVLHQDWLNGKEYKCKVSNKALPAPIEKTISKAKGQPREPQVYTLPPSREEMTDNQVSLTCLVKGFYPSDIAVEWESNGQPENNYKTTPPVLMSDGSFFLASKLTVDKSRWQQGNVFSCSVMHEALHNHYTQKSLSLSPG light 1: RIQMTQSPSSLSASVGDRVTITCSASSSVTYMYWYQDKPGKAPKLLIYDTSNLASGVPSRFSGSGSGTDYTFTISSLQPEDIATYYCQQWSSHIFTFGQGTKVEIKRTVAAPSVFIFPPSDKQLKSGTARVVCLLNNFYPREAKVQWKVDNALQSGNSQESVTEQDSKDSTYSLSSTLTLSKADYEKHKVYACEVTHQGLSSPVTKSFNRGEC heavy 2: EVQLVESGGGLVKTGGSLRLSCVASGFSFKKAWMNWVRYAPGKGLEWVGRIKRNTDGGPADYAARVKGRFTLSRDDSKKTLYLQMNSLKTEDTAVYYCTTLDSSSWYVGYYYMDVWGRGTTVTVSSASTKGPSVFPLAPSSKSTSGGTAALGCLVKDYFPEPVTVSWNSGALTSGVHTFPAVLQSSGLYSLSSVVTVPSSSLGTQTYICNVNHKPSNTKVDKKVEPKSCDKTHTCPPCPAPEAAGGPSVFLFPPKPKDTLMISRTPEVTCVVVDVSHEDPEVKFNWYVDGVEVHNAKTKPREEQYNSTYRVVSVLTVLHQDWLNGKEYKCKVSNKALPAPIEKTISKAKGQPRRPRVYTLPPSREEMTKNQVSLVCLVKGFYPSDIAVEWESNGQPENNYKTTPPVLDSDGSFFLYSVLTVDKSRWQQGNVFSCSVMHEALHNHYTQKSLSLSPG light 2: DIQMTQSPSSVSASVGDRVIITCRASQDINNWLAWYLRRPGDAPKLLIYAASSLQSGVPSRFSGSGSGTDFTLTIGSLQPEDFATYYCQQAHSLPITFGQGTRLEIQRTVAAPSVFIFPPSDEQLKSGTASVVCLLNNFYPREAKVQWKVDNALQSGNSQESVTEQDSKDSTYSLSSTLTLSKADYEKHKVYACEVTHQGLSSPVTKSFNRGEC

From patent US20230295310A1 (ABCELLERA BIOLOGICS, published 2023)
